Experimental data published in patent US20120315284.

T1: GST-c-Jun, P05412
T1 chain: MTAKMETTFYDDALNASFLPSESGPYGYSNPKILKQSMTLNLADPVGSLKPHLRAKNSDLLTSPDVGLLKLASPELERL

B1: MKK7 in cell lysate (immunoprecipitated with MKK7 antibody; the cells' own MKK7) (protein)
chain: AASSLEQKLSRLEAKLKQENREARRRIDLNLDISPQRPRPTLQLPLANDGGSRSPSSESSPQHPTPPARPRHMLGLPSTLFTPRSMESIEIDQKLQEIMKQTGYLTIGGQRYQAEINDLENLGEMGSGTCGQVWKMRFRKTGHVIAVKQMRRSGNKEENKRILMDLDVVLKSHDCPYIVQCFGTFITNTDVFIAMELMGTCAEKLKKRMQGPIPERILGKMTVAIVKALYYLKEKHGVIHRDVKPSNILLDERGQIKLCDFGISGRLVDSKAKTRSAGCAAYMAPERIDPPDPTKPDYDIRADVWSLGISLVELATGQFPYKNCKTDFEVLTKVLQEEPPLLPGHMGFSGDFQSFVKDCLTKDHRKRPKYNKLLEHSFIKRYETLEVDVASWFKDVMAKTESPRTSGVLSQPHLPFFR
B2: recombination GST-JNK1 (protein)
chain: MSRSKRDNNFYSVEIGDSTFTVLKRYQNLKPIGSGAQGIVCAAYDAILERNVAIKKLSRPFQNQTHAKRAYRELVLMKCVNHKNIIGLLNVFTPQKSLEEFQDVYIVMELMDANLCQVIQMELDHERMSYLLYQMLCGIKHLHSAGIIHRDLKPSNIVVKSDCTLKILDFGLARTAGTSFMMTPYVVTRYYRAPEVILGMGYKENVDLWSVGCIMGEMVCHKILFPGRDYIDQWNKVIEQLGTPCPEFMKKLQPTVRTYVENRPKYAGYSFEKLFPDVLFPADSEHNKLKASQARDLLSKMLVIDASKRISVDEALQHPYINVWYDPSEAEAPPPKIPDKQLDEREHTIEEWKELIYKEVMDLEERTKNGVIRGQPSPLAQVQQ

What was measured:
[1] = molecular target: recombination GST-JNK1, P45983
GST-c-Jun, P05412 = molecular target: T1, GST-c-Jun, P05412

Protein	in vitro immune-co-kinase analysis (32P phosphorylation by immunoprecipitated MKK7) [1]	in vitro immune-co-kinase analysis (32P phosphorylation) (GST-c-Jun, P05412)
B1	MKK7 was activated by depletion of TIP41 and phosphorylated GST-JNK1, a substrate of MKK7	–
B2	–	the activated JNK1 phosphorylated GST-c-jun protein, a substrate of JNK pathway
